Reference: patent US20040086502A1 (Genentech, published 2004)

T1: VEGF(8-109) (UniProt P15692 214-315)
T1 construct: range 8-109; Covalently coupled to the BIACORE chip (EDC/NHS); also called vascular endothelial growth factor
T1 sequence (looked up): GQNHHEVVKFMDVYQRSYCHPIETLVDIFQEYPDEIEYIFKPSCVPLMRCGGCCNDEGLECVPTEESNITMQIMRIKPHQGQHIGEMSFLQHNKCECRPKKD


Columns and labels:
VEGF(8-109) [1] = target: T1, VEGF(8-109); assay: SPR (BIACORE-2000), Kd calculated as koff/kon
Procedure: (§1) BIACORE™ Analysis: The VEGF-binding affinities of Fab fragments were calculated from association and dissociation rate constants measured using a BIACORE™-2000 surface plasmon resonance system (BIACORE™, Inc., Piscataway, N.J.). A biosensor chip was activated for covalent coupling of VEGF using N-ethyl-N′-(3-dimethylaminopropyl)-carbodiimide hydrochloride (EDC) and N-hydroxysuccinimide (NHS) according to the supplier's (BIACORE™, Inc., Piscataway, N.J.) instructions. VEGF(8-109) was buffered exchanged into 20 mM sodium acetate, pH 4.8 and diluted to approximately 50 μg/mL. Aliquots of VEGF were injected at a flow rate of 2 μL/min to achieve approximately 700-1400 response units (RU) of coupled protein. A solution of 1 M ethanolamine was injected as a blocking agent.
(§2) For kinetics measurements, two-fold serial dilutions of Fab were injected in PBS/TWEEN buffer (0.05% TWEEN 20™ in phosphate buffered saline) at 25° C. at a flow rate of 10 μL/min. Equilibrium dissociation constants, Kd's from SPR measurements were calculated as koff/kon (Table 17).

VEGF(8-109) [2] = target: T1, VEGF(8-109); assay: SPR (BIACORE-2000), Fab injected over immobilised VEGF(8-109), 25 C
Procedure: as §1, §2

VEGF(8-109) [3] = target: T1, VEGF(8-109); assay: SPR (BIACORE-2000); reference (wt) is Y0192
Procedure: as §1, §2

[4] = target: T2, VEGF (recombinant; version 1-165) (UniProt P15692 27-191); assay: cell-based or functional assay
[5] = target: T2, VEGF (recombinant; version 1-165); assay: cell-based or functional assay; remark: listed apart in the source

T2 sequence (P15692 other isoform, or with tags, fused parts or gaps limits assumed): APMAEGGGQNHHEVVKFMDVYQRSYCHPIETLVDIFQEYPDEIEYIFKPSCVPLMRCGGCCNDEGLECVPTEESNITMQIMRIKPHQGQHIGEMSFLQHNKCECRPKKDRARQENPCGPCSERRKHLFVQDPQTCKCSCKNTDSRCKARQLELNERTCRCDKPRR

Kd (VEGF(8-109) [1]) [nM] | koff (VEGF(8-109) [2]) [s⁻¹] | kon (VEGF(8-109) [2]) [M⁻¹ s⁻¹] | Kd(wt)/Kd(mut) (VEGF(8-109) [3]) [ratio] | inhibition of VEGF-induced growth of HuVECs (alamar blue assay) [4] [fold] | IC50 (read off the curve); VEGF-induced HuVEC growth, alamar blue [5] [ng/mL] | Binder
≤ 0.3 | ≤ 1e-05 | 36000 | 9.7 | – | – | Y0239-19 Fab (Fab, V domains shown, also called insertion variant with the VNERK motif) VH: EVQLVESGGGLVQPGGSLRLSCAASGYTFTNYGMNWVRQAPGKGLEWVGWINTYTGEPTYAADFKRRFTFSLDTSKSTAYLQMNSLRAEDTAVYYCAKYPHYYVNERKSHWYFDVWGQGTL VL: DIQLTQSPSSLSASVGDRVTITCRANEQLSNYLNWYQQKPGKAPKVLIYFTSSLHSGVPSRFSGSGSGTDFTLTISSLQPEDFATYYCQQYSTVPWTFGQGTKVEIKR
0.5 | 1.8e-05 | 38000 | 5.8 | – | – | Y0239-8 Fab (Fab, V domains shown) VH: EVQLVESGGGLVQPGGSLRLSCAASGYTFTNYGMNWVRQAPGKGLEWVGWINTYTGEPTYAADFKRRFTFSLDTSKSTAYLQMNSLRAEDTAVYYCAKYPHYYLRDGRSSHWYFDVWGQGTL VL: DIQLTQSPSSLSASVGDRVTITCRANEQLSNYLNWYQQKPGKAPKVLIYFTSSLHSGVPSRFSGSGSGTDFTLTISSLQPEDFATYYCQQYSTVPWTFGQGTKVEIKR
0.5 | 1.9e-05 | 39700 | 6 | – | – | Y0239-9 Fab (Fab, V domains shown, Only three residues stand in place of G104, although the library was designed with four or five) VH: EVQLVESGGGLVQPGGSLRLSCAASGYTFTNYGMNWVRQAPGKGLEWVGWINTYTGEPTYAADFKRRFTFSLDTSKSTAYLQMNSLRAEDTAVYYCAKYPHYYLGESSHWYFDVWGQGTL VL: DIQLTQSPSSLSASVGDRVTITCRANEQLSNYLNWYQQKPGKAPKVLIYFTSSLHSGVPSRFSGSGSGTDFTLTISSLQPEDFATYYCQQYSTVPWTFGQGTKVEIKR
4.6 | 0.000164 | 36000 | 0.6 | – | – | Y0239-2 Fab (Fab, V domains shown) VH: EVQLVESGGGLVQPGGSLRLSCAASGYTFTNYGMNWVRQAPGKGLEWVGWINTYTGEPTYAADFKRRFTFSLDTSKSTAYLQMNSLRAEDTAVYYCAKYPHYYKNDKSSHWYFDVWGQGTL VL: DIQLTQSPSSLSASVGDRVTITCRANEQLSNYLNWYQQKPGKAPKVLIYFTSSLHSGVPSRFSGSGSGTDFTLTISSLQPEDFATYYCQQYSTVPWTFGQGTKVEIKR
3 | 0.000128 | 46000 | 1 | – | – | Y0241-7 Fab (Fab, V domains shown, Clone from library YC-86, made on the Y0192 template; The text names point mutations only at T28 and F29; The printed stretch ends in GIN, so residue 34 may also differ from the parent; this change is not applied here) VH: EVQLVESGGGLVQPGGSLRLSCAASGYDWTNYGINWVRQAPGKGLEWVGWINTYTGEPTYAADFKRRFTFSLDTSKSTAYLQMNSLRAEDTAVYYCAKYPHYYGSSHWYFDVWGQGTL VL: DIQLTQSPSSLSASVGDRVTITCRANEQLSNYLNWYQQKPGKAPKVLIYFTSSLHSGVPSRFSGSGSGTDFTLTISSLQPEDFATYYCQQYSTVPWTFGQGTKVEIKR
1.8 | 8.6e-05 | 47000 | 1.6 | – | – | Y0242-1 Fab (Fab, V domains shown, Clone from library YC-90, made on the Y0192 template; also called point mutant Y54W) VH: EVQLVESGGGLVQPGGSLRLSCAASGYTFTNYGMNWVRQAPGKGLEWVGWINTWTGEPTYAADFKRRFTFSLDTSKSTAYLQMNSLRAEDTAVYYCAKYPHYYGSSHWYFDVWGQGTL VL: DIQLTQSPSSLSASVGDRVTITCRANEQLSNYLNWYQQKPGKAPKVLIYFTSSLHSGVPSRFSGSGSGTDFTLTISSLQPEDFATYYCQQYSTVPWTFGQGTKVEIKR
0.5 | 1.3e-05 | 25000 | 5.8 | – | – | Y0240-1 Fab (Fab, V domains shown) VH: EVQLVESGGGLVQPGGSLRLSCAASGYTFTNYGMNWVRQAPGKGLEWVGWINTYTGEPTYAADFKRRFTFSLDTSKSTAYLQMNSLRAEDTAVYYCAKYPHYYLTDHKSHWYFDVWGQGTL VL: DIQLTQSPSSLSASVGDRVTITCRANEQLSNYLNWYQQKPGKAPKVLIYFTSSLHSGVPSRFSGSGSGTDFTLTISSLQPEDFATYYCQQYSTVPWTFGQGTKVEIKR
0.36 | 1.1e-05 | 31100 | 8 | ~100 | ~3 | Y0313-2 Fab (Fab, V domains shown, Combines the CDR H3 insertion of Y0239-19 (VNERK) with T28D/N31H; also called CDR combination variant Y0313-2; Insert-Fab Y0313-2) VH: EVQLVESGGGLVQPGGSLRLSCAASGYDFTHYGMNWVRQAPGKGLEWVGWINTYTGEPTYAADFKRRFTFSLDTSKSTAYLQMNSLRAEDTAVYYCAKYPHYYVNERKSHWYFDVWGQGTL VL: DIQLTQSPSSLSASVGDRVTITCRANEQLSNYLNWYQQKPGKAPKVLIYFTSSLHSGVPSRFSGSGSGTDFTLTISSLQPEDFATYYCQQYSTVPWTFGQGTKVEIKR
2.7 | 0.000129 | 47000 | 1.1 | – | – | Y0241-6 Fab (Fab, V domains shown, Clone from library YC-86, made on the Y0192 template; The text names point mutations only at T28 and F29; The printed stretch ends in GIN, so residue 34 may also differ from the parent; this change is not applied here) VH: EVQLVESGGGLVQPGGSLRLSCAASGYDYTNYGINWVRQAPGKGLEWVGWINTYTGEPTYAADFKRRFTFSLDTSKSTAYLQMNSLRAEDTAVYYCAKYPHYYGSSHWYFDVWGQGTL VL: DIQLTQSPSSLSASVGDRVTITCRANEQLSNYLNWYQQKPGKAPKVLIYFTSSLHSGVPSRFSGSGSGTDFTLTISSLQPEDFATYYCQQYSTVPWTFGQGTKVEIKR
0.6 | 3.4e-05 | 57000 | 4.8 | – | – | Y0239-12 Fab (Fab, V domains shown) VH: EVQLVESGGGLVQPGGSLRLSCAASGYTFTNYGMNWVRQAPGKGLEWVGWINTYTGEPTYAADFKRRFTFSLDTSKSTAYLQMNSLRAEDTAVYYCAKYPHYYAHEKKSHWYFDVWGQGTL VL: DIQLTQSPSSLSASVGDRVTITCRANEQLSNYLNWYQQKPGKAPKVLIYFTSSLHSGVPSRFSGSGSGTDFTLTISSLQPEDFATYYCQQYSTVPWTFGQGTKVEIKR
0.6 | 2.5e-05 | 44000 | 5 | – | – | Y0261-6 Fab (Fab, V domains shown) VH: EVQLVESGGGLVQPGGSLRLSCAASGYTFTNYGMNWVRQAPGKGLEWVGWINTYTGEPTYAADFKRRFTFSLDTSKSTAYLQMNSLRAEDTAVYYCAKYPHYYLKDKKSHWYFDVWGQGTL VL: DIQLTQSPSSLSASVGDRVTITCRANEQLSNYLNWYQQKPGKAPKVLIYFTSSLHSGVPSRFSGSGSGTDFTLTISSLQPEDFATYYCQQYSTVPWTFGQGTKVEIKR
